Data: US20140087995A1 (published 2014)
Numbered stars: 1 amine (or outer) side, 2 acyl side, 3 side chain; on linkers, the order of the positions; unused ones are H or OH. Bridge positions count the residues as written; N and C are the ends. Side chains are listed from the residue outwards. Ends that are not written are not given here. * marks the point of attachment. C20 diacid = O=C(O)CCCCCCCCCCCCCCCCCCC(=O)*; C18 diacid = O=C(O)CCCCCCCCCCCCCCCCC(=O)*; C16 diacid = O=C(O)CCCCCCCCCCCCCCC(=O)*; γGlu = O=C(O)[C@H](CCC(=O)[*:2])N[*:1]; C14 diacid = O=C(O)CCCCCCCCCCCCC(=O)*

T1: human amylin receptor (Amylin 3(a) receptor: human calcitonin receptor co-expressed with RAMP-3) (human, UniProt P30988 25-474; O60896 24-148, limits assumed)
T1 construct: whole, on cells; Used as cell membranes prepared from the Amylin 3(a)/CRE-luc BHK cells (Assay V); the complex is called the human amylin receptor; also called hAmylin-R; hAmylinR
T1 sequence (looked up) 1: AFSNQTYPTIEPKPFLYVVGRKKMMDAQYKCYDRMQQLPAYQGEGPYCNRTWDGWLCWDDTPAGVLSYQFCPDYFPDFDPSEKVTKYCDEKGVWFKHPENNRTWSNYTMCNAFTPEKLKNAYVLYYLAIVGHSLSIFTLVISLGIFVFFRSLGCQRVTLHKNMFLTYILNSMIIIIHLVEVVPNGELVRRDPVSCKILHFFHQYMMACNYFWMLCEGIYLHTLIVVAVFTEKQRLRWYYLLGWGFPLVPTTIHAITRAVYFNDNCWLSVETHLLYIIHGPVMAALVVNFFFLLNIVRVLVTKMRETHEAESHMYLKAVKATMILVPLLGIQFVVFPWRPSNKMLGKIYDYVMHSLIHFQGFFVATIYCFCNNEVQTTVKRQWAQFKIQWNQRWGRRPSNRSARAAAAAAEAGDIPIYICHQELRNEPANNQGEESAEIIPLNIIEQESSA
T1 sequence (looked up) 2: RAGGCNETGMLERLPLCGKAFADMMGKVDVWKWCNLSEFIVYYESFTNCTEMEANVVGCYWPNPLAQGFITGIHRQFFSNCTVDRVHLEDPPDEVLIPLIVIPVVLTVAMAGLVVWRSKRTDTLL

B1: N^-1-[(4S)-4-carboxy-4-(19-carboxynonadecanoylamino)butanoyl]-Gly[Arg1,His14,Arg17,Pro21,Pro27,His34]-h-amylin (peptide)
peptide: {C20 diacid-γGlu}-GRCNTATCATQRLAHFLRHSSPNFGAIPSSTNVGHNTY-NH2
modifications: disulfide 3-8
SMILES: CC[C@H](C)[C@H](NC(=O)[C@H](C)NC(=O)CNC(=O)[C@H](Cc1ccccc1)NC(=O)[C@H](CC(N)=O)NC(=O)[C@@H]1CCCN1C(=O)[C@H](CO)NC(=O)[C@H](CO)NC(=O)[C@H](Cc1c[nH]cn1)NC(=O)[C@H](CCCNC(=N)N)NC(=O)[C@H](CC(C)C)NC(=O)[C@H](Cc1ccccc1)NC(=O)[C@H](Cc1c[nH]cn1)NC(=O)[C@H](C)NC(=O)[C@H](CC(C)C)NC(=O)[C@H](CCCNC(=N)N)NC(=O)[C@H](CCC(N)=O)NC(=O)[C@@H](NC(=O)[C@H](C)NC(=O)[C@@H]1CSSC[C@H](NC(=O)[C@H](CCCNC(=N)N)NC(=O)CNC(=O)CC[C@H](NC(=O)CCCCCCCCCCCCCCCCCCC(=O)O)C(=O)O)C(=O)N[C@@H](CC(N)=O)C(=O)N[C@@H]([C@@H](C)O)C(=O)N[C@@H](C)C(=O)N[C@@H]([C@@H](C)O)C(=O)N1)[C@@H](C)O)C(=O)N1CCC[C@H]1C(=O)N[C@@H](CO)C(=O)N[C@@H](CO)C(=O)N[C@H](C(=O)N[C@@H](CC(N)=O)C(=O)N[C@H](C(=O)NCC(=O)N[C@@H](Cc1c[nH]cn1)C(=O)N[C@@H](CC(N)=O)C(=O)N[C@H](C(=O)N[C@@H](Cc1ccc(O)cc1)C(N)=O)[C@@H](C)O)C(C)C)[C@@H](C)O
notes: modifications are with respect to human amylin; also called compound 100
B2: N{-1}-[(4S)-4-carboxy-4-(19-carboxynonadecanoylamino)butanoyl]-Gly[Arg1,His14,Arg17,Pro21,Pro27]-h-amylin (peptide)
peptide: {C20 diacid-γGlu}-GRCNTATCATQRLAHFLRHSSPNFGAIPSSTNVGSNTY-NH2
modifications: disulfide 3-8
SMILES: CC[C@H](C)[C@H](NC(=O)[C@H](C)NC(=O)CNC(=O)[C@H](Cc1ccccc1)NC(=O)[C@H](CC(N)=O)NC(=O)[C@@H]1CCCN1C(=O)[C@H](CO)NC(=O)[C@H](CO)NC(=O)[C@H](Cc1c[nH]cn1)NC(=O)[C@H](CCCNC(=N)N)NC(=O)[C@H](CC(C)C)NC(=O)[C@H](Cc1ccccc1)NC(=O)[C@H](Cc1c[nH]cn1)NC(=O)[C@H](C)NC(=O)[C@H](CC(C)C)NC(=O)[C@H](CCCNC(=N)N)NC(=O)[C@H](CCC(N)=O)NC(=O)[C@@H](NC(=O)[C@H](C)NC(=O)[C@@H]1CSSC[C@H](NC(=O)[C@H](CCCNC(=N)N)NC(=O)CNC(=O)CC[C@H](NC(=O)CCCCCCCCCCCCCCCCCCC(=O)O)C(=O)O)C(=O)N[C@@H](CC(N)=O)C(=O)N[C@@H]([C@@H](C)O)C(=O)N[C@@H](C)C(=O)N[C@@H]([C@@H](C)O)C(=O)N1)[C@@H](C)O)C(=O)N1CCC[C@H]1C(=O)N[C@@H](CO)C(=O)N[C@@H](CO)C(=O)N[C@H](C(=O)N[C@@H](CC(N)=O)C(=O)N[C@H](C(=O)NCC(=O)N[C@@H](CO)C(=O)N[C@@H](CC(N)=O)C(=O)N[C@H](C(=O)N[C@@H](Cc1ccc(O)cc1)C(N)=O)[C@@H](C)O)C(C)C)[C@@H](C)O
notes: modifications are with respect to human amylin; also called compound 99
B3: N^ε1-[(4S)-4-carboxy-4-[[(4S)-4-carboxy-4-(19-carboxynonadecanoylamino)butanoyl]amino]butanoyl]-[Glu14,Arg17,Pro21,Pro27,Pro34,Glu35]-h-amylin (peptide)
peptide: K([γGlu-γGlu-C20 diacid])CNTATCATQRLAEFLRHSSPNFGAIPSSTNVGPETY-NH2
modifications: disulfide 2-7 (inferred)
notes: modifications are with respect to human amylin
B4: N^ε1-[(4S)-4-carboxy-4-(13-carboxytridecanoylamino)butanoyl]-[Arg17,Pro21,Pro27,His34]-h-amylin (peptide)
peptide: K([γGlu-C14 diacid])CNTATCATQRLANFLRHSSPNFGAIPSSTNVGHNTY-NH2
modifications: disulfide 2-7; N-terminus assumed
SMILES: CC[C@H](C)[C@H](NC(=O)[C@H](C)NC(=O)CNC(=O)[C@H](Cc1ccccc1)NC(=O)[C@H](CC(N)=O)NC(=O)[C@@H]1CCCN1C(=O)[C@H](CO)NC(=O)[C@H](CO)NC(=O)[C@H](Cc1c[nH]cn1)NC(=O)[C@H](CCCNC(=N)N)NC(=O)[C@H](CC(C)C)NC(=O)[C@H](Cc1ccccc1)NC(=O)[C@H](CC(N)=O)NC(=O)[C@H](C)NC(=O)[C@H](CC(C)C)NC(=O)[C@H](CCCNC(=N)N)NC(=O)[C@H](CCC(N)=O)NC(=O)[C@@H](NC(=O)[C@H](C)NC(=O)[C@@H]1CSSC[C@H](NC(=O)[C@@H](N)CCCCNC(=O)CC[C@H](NC(=O)CCCCCCCCCCCCC(=O)O)C(=O)O)C(=O)N[C@@H](CC(N)=O)C(=O)N[C@@H]([C@@H](C)O)C(=O)N[C@@H](C)C(=O)N[C@@H]([C@@H](C)O)C(=O)N1)[C@@H](C)O)C(=O)N1CCC[C@H]1C(=O)N[C@@H](CO)C(=O)N[C@@H](CO)C(=O)N[C@H](C(=O)N[C@@H](CC(N)=O)C(=O)N[C@H](C(=O)NCC(=O)N[C@@H](Cc1c[nH]cn1)C(=O)N[C@@H](CC(N)=O)C(=O)N[C@H](C(=O)N[C@@H](Cc1ccc(O)cc1)C(N)=O)[C@@H](C)O)C(C)C)[C@@H](C)O
notes: as for B3
B5: N^ε1-[(4S)-4-carboxy-4-(17-carboxyheptadecanoylamino)butanoyl]-[Arg17,Pro21,Pro27,His34]-h-amylin (peptide)
peptide: K([γGlu-C18 diacid])CNTATCATQRLANFLRHSSPNFGAIPSSTNVGHNTY-NH2
modifications: disulfide 2-7; N-terminus assumed
SMILES: CC[C@H](C)[C@H](NC(=O)[C@H](C)NC(=O)CNC(=O)[C@H](Cc1ccccc1)NC(=O)[C@H](CC(N)=O)NC(=O)[C@@H]1CCCN1C(=O)[C@H](CO)NC(=O)[C@H](CO)NC(=O)[C@H](Cc1c[nH]cn1)NC(=O)[C@H](CCCNC(=N)N)NC(=O)[C@H](CC(C)C)NC(=O)[C@H](Cc1ccccc1)NC(=O)[C@H](CC(N)=O)NC(=O)[C@H](C)NC(=O)[C@H](CC(C)C)NC(=O)[C@H](CCCNC(=N)N)NC(=O)[C@H](CCC(N)=O)NC(=O)[C@@H](NC(=O)[C@H](C)NC(=O)[C@@H]1CSSC[C@H](NC(=O)[C@@H](N)CCCCNC(=O)CC[C@H](NC(=O)CCCCCCCCCCCCCCCCC(=O)O)C(=O)O)C(=O)N[C@@H](CC(N)=O)C(=O)N[C@@H]([C@@H](C)O)C(=O)N[C@@H](C)C(=O)N[C@@H]([C@@H](C)O)C(=O)N1)[C@@H](C)O)C(=O)N1CCC[C@H]1C(=O)N[C@@H](CO)C(=O)N[C@@H](CO)C(=O)N[C@H](C(=O)N[C@@H](CC(N)=O)C(=O)N[C@H](C(=O)NCC(=O)N[C@@H](Cc1c[nH]cn1)C(=O)N[C@@H](CC(N)=O)C(=O)N[C@H](C(=O)N[C@@H](Cc1ccc(O)cc1)C(N)=O)[C@@H](C)O)C(C)C)[C@@H](C)O
notes: as for B3
B6: N^ε1-[(4S)-4-carboxy-4-(15-carboxypentadecanoylamino)butanoyl]-[Arg17,Pro21,Pro27,His34]-h-amylin (peptide)
peptide: K([γGlu-C16 diacid])CNTATCATQRLANFLRHSSPNFGAIPSSTNVGHNTY-NH2
modifications: disulfide 2-7; N-terminus assumed
SMILES: CC[C@H](C)[C@H](NC(=O)[C@H](C)NC(=O)CNC(=O)[C@H](Cc1ccccc1)NC(=O)[C@H](CC(N)=O)NC(=O)[C@@H]1CCCN1C(=O)[C@H](CO)NC(=O)[C@H](CO)NC(=O)[C@H](Cc1c[nH]cn1)NC(=O)[C@H](CCCNC(=N)N)NC(=O)[C@H](CC(C)C)NC(=O)[C@H](Cc1ccccc1)NC(=O)[C@H](CC(N)=O)NC(=O)[C@H](C)NC(=O)[C@H](CC(C)C)NC(=O)[C@H](CCCNC(=N)N)NC(=O)[C@H](CCC(N)=O)NC(=O)[C@@H](NC(=O)[C@H](C)NC(=O)[C@@H]1CSSC[C@H](NC(=O)[C@@H](N)CCCCNC(=O)CC[C@H](NC(=O)CCCCCCCCCCCCCCC(=O)O)C(=O)O)C(=O)N[C@@H](CC(N)=O)C(=O)N[C@@H]([C@@H](C)O)C(=O)N[C@@H](C)C(=O)N[C@@H]([C@@H](C)O)C(=O)N1)[C@@H](C)O)C(=O)N1CCC[C@H]1C(=O)N[C@@H](CO)C(=O)N[C@@H](CO)C(=O)N[C@H](C(=O)N[C@@H](CC(N)=O)C(=O)N[C@H](C(=O)NCC(=O)N[C@@H](Cc1c[nH]cn1)C(=O)N[C@@H](CC(N)=O)C(=O)N[C@H](C(=O)N[C@@H](Cc1ccc(O)cc1)C(N)=O)[C@@H](C)O)C(C)C)[C@@H](C)O
notes: as for B3

biological target: T1, human amylin receptor (Amylin 3(a) …); assay: SPA competition binding, displacement of 125I-rat amylin from membranes of BHK cells with human calcitonin receptor + RAMP-3 (Assay V)
Description: The binding assay was performed using scintillation proximity assay (SPA) beads (RPNQ0001) from PerkinElmer and cell membranes from the Amylin 3(a)/CRE-luc cells (as described in Assay (II)) were used. Membranes were prepared in the following way; the cells were rinsed with PBS and incubated with Versene for approximately 5 min before harvesting. The cells were flushed with PBS and the cell-suspension was centrifuged for 5 min at 1000 rpm. Cells were homogenized (ultrathurrax) in a buffer containing 20 mM Na-HEPES and 10 mM EDTA (pH 7.4) and centrifuged at 20.000 rpm for 15 min. The resulting pellet was resuspended, homogenized and centrifuged (20.000 rpm, 15 min) in a buffer containing 20 mM Na-HEPES and 0.1 mM EDTA (pH 7.4, buffer 2). The resulting pellet was resuspended in buffer 2 and protein concentration was measured (BCA protein Assay, Pierce). The homogenate was kept cold during the whole procedure. The membranes were kept at −80° C. until use. The assay was performed in a 384 well Optiplate (PerkinElmer) in a total volume of 40 ul. Membranes were mixed with SPA beads. Final concentration of membranes 35 ng/μL final and SPA beads was 0.05 mg/well. Test-compounds were dissolved in DMSO and further diluted in assay buffer (50 mM Hepes, pH 7.4, 1 mM CaCl2, 5 mM MgCl₂, 0.1% OA and 0.02% Tween20). […] The final mixture was incubated with shaking at 400 rpm for 120 min at 25° C. prior to centrifugation (1500 rpm, 10 min). Samples were analyzed on TopCounter™ (Packard). The IC₅₀ was calculated using (one site binding competition analysis) GraphPad Prism5 as a measure of receptor affinity.

IC50 [nM]	Binder
1.01	B1
0.348	B2
0.121	B3
1.04	B4
0.382	B5
0.58	B6
